Experimental data from article PMC8918029 (Journal of medicinal chemistry, 2021).
Square brackets hold non-standard residues; d marks the D form. * marks the point of attachment. Boc = CC(C)(C)OC(=O)*; Aib = CC(C)(N)C(=O)O

Target: γ-secretase complex (presenilin-1, nicastrin, Aph-1, Pen-2) (UniProt Q92542 34-709; Q96BI3 1-265; Q9NZ42 1-101)
Experiment: enzyme inhibition kinetics

Ki: 1.19 ± 0.1 nM
Binder: Boc-VG[Aib]VVI[Aib]FV[Aib]GGGVFFLV-NH2 (also: hydroxyethylurea isostere (ψ) between the two Phe (15-16)) [HPI-TSA conjugate 28]
